Results on 1 compound are retold here after publication PMC4277816 (Chemical communications (Cambridge, England), 2014).

Molecules are shown by their SMILES. Square brackets hold non-standard residues; d marks the D form. Peptide text beside a SMILES is read from it. * marks the point of attachment. X2 = O=C(O)C(CCCCN*)N1CCCN2CCN(CCCN(CP(=O)(O)O)CC2)CC1; PEG4 = NCCOCCOCCOCCOCCC(=O)O; X1 = O=C(/C=C/c1ccccc1)*

The data set in a line: serum stability of 64Cu-labelled cFlFlF peptide–chelate conjugates. Format: in vitro ADME. The following applies: compared with the 64Cu–CB-TE1A1P peptide, result in words (Fig. S2b, ESI).

On to `CC(C)C[C@@H](NC(=O)[C@H](Cc1ccccc1)NC(=O)[C@@H](CC(C)C)NC(=O)[C@H](Cc1ccccc1)NC(=O)/C=C/c1ccccc1)C(=O)N[C@@H](Cc1ccccc1)C(=O)NCCOCCOCCOCCOCCC(=O)NCCCCC(C(=O)O)N1CCCN2CCN(CCCN(CP(=O)(O)O)CC2)CC1` (stereo partly drawn) [64Cu–CB-TE1K1P peptide, metal not drawn] (X1-F[dL]F[dL]F[PEG4]-X2; N-terminus assumed), for which the serum stability entry is recorded as “better serum stability”.
